Source: PMC5666746

Target: recombinant extra-cellular domain sequence of DR5 (sDR5) protein (human)
Assay: BLI; ForteBio Octet QKe; biotinylated sDR5 loaded on streptavidin sensors at 1 μM; scFv at two-fold serial dilutions 93.75-6000 nM in SD Buffer (PBS, pH 7.4, 0.02% Tween 20, 0.1% BSA); association 5 min, dissociation 10 min

Sequence of recombinant extra-cellular domain sequence of DR5 (sDR5) protein (human) (O14763 whole entry, the tested form may be a part): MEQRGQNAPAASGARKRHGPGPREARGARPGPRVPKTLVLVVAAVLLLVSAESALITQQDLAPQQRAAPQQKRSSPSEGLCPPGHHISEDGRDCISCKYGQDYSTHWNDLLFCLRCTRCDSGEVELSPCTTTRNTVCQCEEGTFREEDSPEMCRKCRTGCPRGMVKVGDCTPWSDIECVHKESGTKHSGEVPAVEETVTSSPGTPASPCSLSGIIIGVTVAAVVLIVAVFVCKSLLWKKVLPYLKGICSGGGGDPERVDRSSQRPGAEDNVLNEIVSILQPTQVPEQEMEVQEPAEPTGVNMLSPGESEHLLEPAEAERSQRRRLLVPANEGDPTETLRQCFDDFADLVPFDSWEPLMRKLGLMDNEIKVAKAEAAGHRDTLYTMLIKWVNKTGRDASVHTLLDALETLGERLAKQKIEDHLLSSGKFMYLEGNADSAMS

Kd: 126 nM
koff: 0.00144 s⁻¹
kon: 11500 M⁻¹ s⁻¹
B1: TR2-3, fully human agonistic anti-DR5 single chain fragment variable (scFv) antibody (scFv)
scFv: QVQLQESGPGLVKPSGTLSLTCAVSGGSISSSNWWSWVRQPPGKGLEWIGEIYHSGSTNYNPSLKSRVTISVDKSKNQFSLKLSSVTAADTAVYYCARGAAAGTANDAFDIWGQGTMVTVSSGGGGSGGGGSGGGGSETTLTQSPGILSLSPGERASLSCRASQSVPHNYLAWYQQKPGQAPRLLIYGASNRATGIPDRFSGSGSETDFTLTVTRLAPEDFAVYYCQQYGRSLTFGGGTKVEIKR
